Measurements from publication PMC4989188, “Identification and characterization of chromosomal relBE toxin-antitoxin locus in Streptomyces cattleya DSM46488” (Scientific Reports, 2016).

Target: T1, RelE2sca-His6 toxin (SCATT_39270) of Streptomyces cattleya DSM 46488 (Streptomyces cattleya DSM 46488, UniProt F8K3H9 1-87)
T1 construct: also called toxin RelE2sca; not shown: His6, N-terminal, kept
T1 sequence (looked up): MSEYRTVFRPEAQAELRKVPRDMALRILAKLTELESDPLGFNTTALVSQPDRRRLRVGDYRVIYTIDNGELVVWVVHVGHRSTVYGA
Assay: SEC
Conditions: both partners purified

B1: RelB2sca antitoxin (SCATT_39280) of Streptomyces cattleya DSM 46488 (natural protein, UniProt G8WSR4 1-89, looked up)
chain: MTQPLPMESIRDVRAHLAEVVERADRDDVPTVITRRGKQVAAVVSIEVLRKYQEWEEREINRIIDERMANPTPGVPIEDIMRETLARSE
notes: Untagged in the co-purification; Copies 2 are those in the 2:2 complex with RelE2sca-His6; In the functional row the protein was expressed from pBAD-relB2sca-relEeco in E. coli MGJ5987; also called antitoxin RelB2sca; RelBsca; source: E. coli BL21(DE3), co-expressed with RelE2sca-His6 from pACYC-relB2sca-relE2scahis, co-purified on NTA-Ni resin
stoichiometry N: 1 RelB2sca per RelE2sca-His6 (printed as 2:2)
